The values that follow come from patent publication US20240066131A1 (Protagonist Therapeutics, Inc., priority 2020, published 2024).

T1: human ferroportin (SLC40A1) fused in frame with GFP, stably expressed in HEK293 cells (human, UniProt Q9NP59 1-571)
T1 sequence (looked up): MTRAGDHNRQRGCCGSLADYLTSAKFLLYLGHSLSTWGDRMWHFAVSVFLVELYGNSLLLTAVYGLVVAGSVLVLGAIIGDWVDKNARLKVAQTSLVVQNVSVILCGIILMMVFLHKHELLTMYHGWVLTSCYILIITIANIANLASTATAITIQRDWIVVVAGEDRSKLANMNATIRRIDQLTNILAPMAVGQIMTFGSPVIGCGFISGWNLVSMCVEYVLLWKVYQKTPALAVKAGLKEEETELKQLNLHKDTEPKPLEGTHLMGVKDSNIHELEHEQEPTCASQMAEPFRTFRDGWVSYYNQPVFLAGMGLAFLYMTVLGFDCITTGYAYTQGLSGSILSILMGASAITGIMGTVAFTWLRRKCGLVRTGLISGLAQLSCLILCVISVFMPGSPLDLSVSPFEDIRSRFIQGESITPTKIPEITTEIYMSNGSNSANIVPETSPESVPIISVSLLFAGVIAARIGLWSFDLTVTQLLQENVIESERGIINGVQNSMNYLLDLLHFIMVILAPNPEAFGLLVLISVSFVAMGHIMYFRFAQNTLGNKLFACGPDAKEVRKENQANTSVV

T2: ferroportin endogenously expressed on T47D cells (HTB 133, ATCC) (human, UniProt Q9NP59 1-571)
T2 sequence (looked up): T1 sequence (looked up)

B1: Isovaleric Acid-E-T-H-[Dpa]-P-A-I-[(D)Lys]-[bhPhe]-[Lys(Ahx_Palm)]-[(D)Lys]-A-NH2 (peptide)
peptide: Isovaleryl-ETH[Dip]PAI[dK][β3hF]K([Ahx-Palmitoyl])[dK]A-NH2
SMILES: CCCCCCCCCCCCCCCC(=O)NCCCCCC(=O)NCCCC[C@H](NC(=O)C[C@H](Cc1ccccc1)NC(=O)[C@@H](CCCCN)NC(=O)[C@@H](NC(=O)[C@H](C)NC(=O)[C@@H]1CCCN1C(=O)[C@@H](NC(=O)[C@H](Cc1c[nH]cn1)NC(=O)[C@@H](NC(=O)[C@H](CCC(=O)O)NC(=O)CC(C)C)[C@@H](C)O)C(c1ccccc1)c1ccccc1)[C@@H](C)CC)C(=O)N[C@H](CCCCN)C(=O)N[C@@H](C)C(N)=O
B2: Isovaleric Acid-[Tet1]-T-[(1Me)His]-[Dpa]-P-A-I-[(N-Me)Lys]-[bhPhe]-[Lys(Ahx_Palm)]-NH2 (peptide)
peptide: Isovaleryl-[Ala(1H-tetrazol-5-yl)]T[His(τ-Me)][Dip]PAI[NMeK][β3hF]K([Ahx-Palmitoyl])-NH2
SMILES: CCCCCCCCCCCCCCCC(=O)NCCCCCC(=O)NCCCC[C@H](NC(=O)C[C@H](Cc1ccccc1)NC(=O)[C@H](CCCCN)N(C)C(=O)[C@@H](NC(=O)[C@H](C)NC(=O)[C@@H]1CCCN1C(=O)[C@@H](NC(=O)[C@H](Cc1cn(C)cn1)NC(=O)[C@@H](NC(=O)[C@H](Cc1nnn[nH]1)NC(=O)CC(C)C)[C@@H](C)O)C(c1ccccc1)c1ccccc1)[C@@H](C)CC)C(N)=O
B3: Isovaleric Acid-K-T-H-[Dpa]-P-A-I-E-[bhPhe]-[Lys(Ahx_Palm)]-R-NH2; (K and E cyclized) (peptide)
peptide: XKTHXPAIEXXR
modifications: N-term Isovaleric Acid; Dpa4; bhPhe9; Lys(Ahx_Palm)10; C-term NH2; K and E cyclized (lactam)
B4: Isovaleric Acid-E-T-H-[Dpa]-P-A-I-[Lys(IsoGlu_Palm)]-[bhPhe]-[(D)Lys]-NH2 (peptide)
peptide: Isovaleryl-ETH[Dip]PAIK([γGlu-Palmitoyl])[β3hF][dK]-NH2
SMILES: CCCCCCCCCCCCCCCC(=O)N[C@@H](CCC(=O)NCCCC[C@H](NC(=O)[C@@H](NC(=O)[C@H](C)NC(=O)[C@@H]1CCCN1C(=O)[C@@H](NC(=O)[C@H](Cc1c[nH]cn1)NC(=O)[C@@H](NC(=O)[C@H](CCC(=O)O)NC(=O)CC(C)C)[C@@H](C)O)C(c1ccccc1)c1ccccc1)[C@@H](C)CC)C(=O)N[C@H](CC(=O)N[C@H](CCCCN)C(N)=O)Cc1ccccc1)C(=O)O

Starred links: 1 amine or outer side, 2 acyl side, 3 side chain; linkers in the order of their positions; H or OH if unused. Non-standard residues stand in square brackets, D forms with d. Groups on a side chain read outwards from the residue. *: point of attachment. Ala(1H-tetrazol-5-yl) = N[C@@H](Cc1nnn[nH]1)C(=O)O; PEG11 = NCCOCCOCCOCCOCCOCCOCCOCCOCCOCCOCCOCCC(=O)O; C18 diacid = O=C(O)CCCCCCCCCCCCCCCCC(=O)*; Dip = N[C@H](C(=O)O)C(c1ccccc1)c1ccccc1; γGlu = O=C(O)[C@H](CCC(=O)[*:2])N[*:1]; His(τ-Me) = Cn1cnc(C[C@H](N)C(=O)O)c1; Palmitoyl = CCCCCCCCCCCCCCCC(=O)*; β3hF = N[C@H](CC(=O)O)Cc1ccccc1; NMeK = CN[C@@H](CCCCN)C(=O)O; Isovaleryl = CC(C)CC(=O)*; AEEA = NCCOCCOCC(=O)O; Ahx = NCCCCCC(=O)O

The target in one experiment is T1, human ferroportin (SLC40A1) fused in …. The experiment in a line: cell-based or functional assay.
Take Isovaleryl-ETHFPAIK([γGlu-Palmitoyl])FEPRSKGAK-NH2 [Isovaleric Acid-E-T-H-F-P-A-I-[Lys(IsoGlu_Palm)]-F-E-P-R-S-K-G-A-K-NH2]: the “FPN EC50” value came out at 280 nM.
Same read-out and setting: in the case of B1 it was 17.8 nM; in that of Isovaleryl-ETHFPAIK([AEEA-AEEA-Ahx-C18 diacid])FEPRSKGAK-NH2 [Isovaleric Acid-E-T-H-F-P-A-I-[Lys(1Peg2_1Peg2_Ahx_C18_Diacid)]-F-E-P-R-S-K-G-A-K-NH2], 588 nM; in that of Isovaleryl-ETH[Dip]PAIK([PEG11-Palmitoyl])[β3hF]-NH2 [Isovaleric Acid-E-T-H-[Dpa]-P-A-I-[Lys(2PEG11_Palm)]-[bhPhe]-NH2], 44.5 nM.
As to Isovaleryl-ETH[Dip]PAIK(Ac)[β3hF]-NH2 [Isovaleric Acid-E-T-H-[Dpa]-P-A-I-[Lys(Ac)]-[bhPhe]-NH2], the “FPN EC50” value stood at 175 nM.
With Isovaleryl-ETHFPAIK([AEEA-AEEA-γGlu-C18 diacid])FEPRSKGAK-NH2 [Isovaleric Acid-E-T-H-F-P-A-I-[Lys(1PEG2_1PEG2_IsoGlu_C18_Diacid)]-F-E-P-R-S-K-G-A-K-NH2], the “FPN EC50” value stood at 2360 nM.
Same read-out and setting: in the case of DiIsoAmylAmine_CH2_Acid-TH[Dip]PAIK([Ahx-Palmitoyl])[β3hF][dK]-NH2 [[DiIsoAmylAmine_CH2_Acid]-T-H-[Dpa]-P-A-I-[Lys(Ahx_Palm)]-[bhPhe]-[(D)Lys]-NH2] it was 25.9 nM.
Regarding B2, the “FPN EC50” value worked out at 23.9 nM.
Turning to Isovaleryl-ETH[Dip]PAIK([AEEA-AEEA-γGlu-C18 diacid])[β3hF][dK]-NH2 [Isovaleric Acid-E-T-H-[Dpa]-P-A-I-[Lys(1PEG2_1PEG2_IsoGlu_C18_Diacid)]-[bhPhe]-[(D)Lys]-NH2], the “FPN EC50” value was found to be 429 nM.
Still for that read-out and setting: with B3 the figure was 13.8 nM; with B4, 314 nM.

For another experiment, the target named is T2, ferroportin endogenously expressed on …. The experiment in a line: cell-based or functional assay.
For Isovaleryl-ETHFPAIK([γGlu-Palmitoyl])FEPRSKGAK-NH2 [Isovaleric Acid-E-T-H-F-P-A-I-[Lys(IsoGlu_Palm)]-F-E-P-R-S-K-G-A-K-NH2], the “T47D MSA IC50” value turned out to be 289 nM.
With B1, the “T47D MSA IC50” value came out at 5.97 nM.
For the molecule Isovaleryl-ETHFPAIK([AEEA-AEEA-Ahx-C18 diacid])FEPRSKGAK-NH2 [Isovaleric Acid-E-T-H-F-P-A-I-[Lys(1Peg2_1Peg2_Ahx_C18_Diacid)]-F-E-P-R-S-K-G-A-K-NH2], the “T47D MSA IC50” value came out at 261 nM.
On the same count and under the same terms, with Isovaleryl-ETH[Dip]PAIK([PEG11-Palmitoyl])[β3hF]-NH2 [Isovaleric Acid-E-T-H-[Dpa]-P-A-I-[Lys(2PEG11_Palm)]-[bhPhe]-NH2] the figure was 1.88 nM; with Isovaleryl-ETH[Dip]PAIK(Ac)[β3hF]-NH2 [Isovaleric Acid-E-T-H-[Dpa]-P-A-I-[Lys(Ac)]-[bhPhe]-NH2], 355 nM; with Isovaleryl-ETHFPAIK([AEEA-AEEA-γGlu-C18 diacid])FEPRSKGAK-NH2 [Isovaleric Acid-E-T-H-F-P-A-I-[Lys(1PEG2_1PEG2_IsoGlu_C18_Diacid)]-F-E-P-R-S-K-G-A-K-NH2], 3440 nM.
On to DiIsoAmylAmine_CH2_Acid-TH[Dip]PAIK([Ahx-Palmitoyl])[β3hF][dK]-NH2 [[DiIsoAmylAmine_CH2_Acid]-T-H-[Dpa]-P-A-I-[Lys(Ahx_Palm)]-[bhPhe]-[(D)Lys]-NH2], for which the “T47D MSA IC50” value is 52.9 nM.
For B2, the “T47D MSA IC50” value was found to be 3.94 nM.
Isovaleryl-ETH[Dip]PAIK([AEEA-AEEA-γGlu-C18 diacid])[β3hF][dK]-NH2 [Isovaleric Acid-E-T-H-[Dpa]-P-A-I-[Lys(1PEG2_1PEG2_IsoGlu_C18_Diacid)]-[bhPhe]-[(D)Lys]-NH2]: the “T47D MSA IC50” value was 65.8 nM.
On the same count and under the same terms, in the case of B3 it was 1.74 nM; in that of B4, 13.3 nM.
